This is an account of results in article PMC2764403 (Biochemistry, 2009).

For orientation: Kd means the free concentration of one partner at which half of the binding sites on the other are occupied at equilibrium, for simple one-to-one binding. Higher therefore signals lower affinity. The stoichiometry N is the number of molecules, sites or subunits per partner or assembly.

Test in all cases: AUC
Series [1] deals with βB1ΔN47, tryptic product of murine βB1-crystallin (residues 1-47 removed) (murine).
The target in series [2] is human βA3-crystallin (human) (UniProt P05813).
Series [3] addresses βB1ΔN56, murine βB1-crystallin with N-terminal residues 1-56 deleted (murine).
The next series deals with T1, murine βB1-crystallin (murine, UniProt Q9WVJ5 1-250).
T1 sequence (looked up): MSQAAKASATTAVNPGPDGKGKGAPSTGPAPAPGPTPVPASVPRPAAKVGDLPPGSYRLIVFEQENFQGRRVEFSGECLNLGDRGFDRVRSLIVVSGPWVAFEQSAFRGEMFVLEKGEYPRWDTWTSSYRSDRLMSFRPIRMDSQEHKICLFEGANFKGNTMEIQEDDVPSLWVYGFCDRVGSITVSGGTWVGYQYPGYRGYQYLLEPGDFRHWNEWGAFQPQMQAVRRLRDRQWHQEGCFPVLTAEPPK

The series “AUC” concerns the molecule itself.

In series [1], “βB1ΔN47, tryptic product of murine βB1-crystallin (residues 1-47 removed) (domain or fragment)” registered a Kd of 1400 nM and a stoichiometry N of 2. In addition, in series [2], the Kd was determined as 200 nM.
“βB1ΔN56, murine βB1-crystallin with N-terminal residues 1-56 deleted (domain or fragment)” came in with a stoichiometry N in series [3] of 4.

B1: βA3ΔN30, human βA3-crystallin with N-terminal residues 1-30 deleted and residue 31 replaced by glycine (domain or fragment, UniProt P05813-1 31-215, looked up)
chain: GKITIYDQENFQGKRMEFTSSCPNVSERSFDNVRSLKVESGAWIGYEHTSFCGQQFILERGEYPRWDAWSGSNAYHIERLMSFRPICSANHKESKMTIFEKENFIGRQWEISDDYPSLQAMGWFNNEVGSMKIQSGAWVCYQYPGYRGYQYILECDHHGGDYKHWREWGSHAQTSQIQSIRRIQQ
In turn, B1 had a Kd with murine βB1-crystallin of 5 µM. Besides, in the series “AUC”, the Kd amounted to 100 nM and the “stoichiometry N” value turned out to be 2.
